# From doi:10.1101/2020.04.03.024018, “High-affinity agonist binding to C5aR results from a cooperative two-site binding mechanism” (bioRxiv, 2020)
# T1: C5a anaphylatoxin chemotactic receptor 1 (C5aR), wild type (human, UniProt P21730 1-350, sulfonated tyrosines (sulfonation detected by anti-sulfotyrosine Western blot; eliminated by the Y11F and Y14F mutations))
# T1 construct: human G protein-coupled C5a receptor (C5aR), wild type; also called C5aR^WT; wtC5aR; source: HEK-293S GnTI- cells (BacMam), purified (Ni-NTA, anti-Flag M1 resin, SEC), reconstituted in DOPC/CHS liposomes; not shown: His8, C-terminal, kept
# T1 sequence (looked up): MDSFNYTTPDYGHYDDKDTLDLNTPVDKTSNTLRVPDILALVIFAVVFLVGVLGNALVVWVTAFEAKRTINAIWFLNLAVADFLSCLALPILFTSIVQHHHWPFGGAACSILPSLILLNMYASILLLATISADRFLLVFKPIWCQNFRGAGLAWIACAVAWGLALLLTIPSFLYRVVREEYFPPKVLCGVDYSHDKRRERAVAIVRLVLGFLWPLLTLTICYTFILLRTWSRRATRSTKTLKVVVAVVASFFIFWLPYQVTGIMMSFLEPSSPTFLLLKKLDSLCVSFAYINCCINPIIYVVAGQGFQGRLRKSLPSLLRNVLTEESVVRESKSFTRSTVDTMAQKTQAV
# T2: C5aRΔTyr mutant (Y11F and Y14F) (human, UniProt P21730 1-350, Y11F | Y14F)
# T2 construct: human C5aR with the two sulfation-site tyrosines changed; A legend and the methods print the second mutation as F14F; also called C5aR-d2Y; source: HEK-293S GnTI- cells (BacMam), purified, reconstituted in DOPC/CHS liposomes
# T2 sequence (looked up): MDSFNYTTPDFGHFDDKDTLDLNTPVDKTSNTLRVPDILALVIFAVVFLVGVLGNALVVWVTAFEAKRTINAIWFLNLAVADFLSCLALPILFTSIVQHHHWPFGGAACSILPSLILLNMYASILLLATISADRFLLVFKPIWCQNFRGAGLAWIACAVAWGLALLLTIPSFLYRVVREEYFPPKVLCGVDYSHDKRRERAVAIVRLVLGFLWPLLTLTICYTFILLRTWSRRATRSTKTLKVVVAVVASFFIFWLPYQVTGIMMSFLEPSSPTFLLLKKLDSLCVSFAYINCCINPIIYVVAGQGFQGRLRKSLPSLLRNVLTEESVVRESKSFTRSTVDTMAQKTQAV
# How the values were obtained:
# Details in all cases: both partners purified
# [1] = target: T1, C5a anaphylatoxin chemotactic receptor …; experiment: single-molecule force spectroscopy (FD-based AFM); ligand on the AFM tip (PEG27 linker, tris-NTA-Ni2+); receptor in DOPC/CHS liposomes adsorbed on mica; high loading rates only (10^5-10^7 pN/s); Friddle-Noy-de Yoreo fit, Kd calculated from dGbu; 20 mM HEPES, 300 mM NaCl, about 24 °C
# [2] = target: T2, C5aRΔTyr mutant (Y11F and Y14F); experiment: as above
# [3] = target: T1, C5a anaphylatoxin chemotactic receptor …; experiment: single-molecule force spectroscopy (force-volume AFM + FD-based AFM); ligand on the AFM tip (PEG27 linker, tris-NTA-Ni2+); receptor in DOPC/CHS liposomes adsorbed on mica; low and high loading rates combined (10^2-10^7 pN/s); Friddle-Noy-de Yoreo fit, Kd calculated from dGbu; 20 mM HEPES, 300 mM NaCl, about 24 °C
binder,measurement,setting,value
"complement C5a anaphylatoxin (ligand, UniProt P01031 678-751, looked up, C5a anaphylatoxin, 74-aa glycoprotein, cut product of complement C5; C-terminal residue R74; numbers count on: the mature C5a; Held on the AFM tip through a PEG27 linker and tris-NTA-Ni2+; also called C5a ligand; endogenous C5a ligand) TLQKKIEEIAAKYKHSVVKKCCYDGACVNNDETCEQRAARISLGPRCIKAFTECCVVASQLRANISHKDMQLGR",Kd,[1],~0.001 µM
same,Kd,[2],~20000 µM
same,Kd,[3],~0.00609 µM
